# From patent US9586990B2, “Enzymes for transforming ergopeptines and method therefor” (Erber Aktiengesellschaft, priority 2012, dated 2017)
# What was measured:
# [1] = activity (detoxification) assay of the purified his-tagged enzyme with ergotamine; format: biochemical; details: FIG. 1; 50 mM sodium phosphate buffer pH 7.0, 25° C.; enzyme 0.079 μg/ml, ergotamine 5 mg/kg
# Description: (§1) The gene with the sequence ID No. 2, which codes for an α/β-hydrolase comprising a catalytic triad of S94-D234-H270, was cloned into the expression vector pET28a(+) by applying standard methods, transformed and expressed in E. coli. Following the expression in E. coli BL21(DE3), the his-tagged enzyme was purified by affinity chromatography. The enzyme concentration was determined using a Pierce BSA Protein Assay Kit, and the enzyme was used in activity assays. The assays were carried out in 50 mM sodium phosphate buffer (pH 7.0) at 25° C.
# In the context of the detoxification assays, enzyme concentrations of 0.079 μg/ml and ergotamine concentrations of 5 mg/kg were used.
# The samples were analyzed using HPLC-FLD or HPLC-MS/MS, each by analytically determining the respective concentration of the sum of the respective epimers. Simultaneously with the determination of the ergopeptine concentration during the enzymatic reaction, the formation of the ergo hydroxy acid (metabolite 1) and of the ergoproline cyclodipeptide (metabolite 2) was observed. During the continued reaction course, the conversion of metabolite 1 to ergine was detected.
# [2] = assay for reacting the six ergopeptines and their isomeric forms; format: biochemical; details: 1.58 μg/ml enzyme, concentrations equimolar to 10 mg/kg ergotamine; pH 7.0, 25° C.; FIG. 2
# Description: as §1
# A further assay for reacting the six ergopeptines, namely ergotamine, ergovaline, ergocomine, ergocristine, ergocryptine or ergosine, and their respective isomeric forms, namely ergotaminine, ergovalinine, ergocominine, ergocristinine, ergocryptinine and ergosinine, used 1.58 μg/ml of the enzyme with sequence ID No. 1 and 10 mg/kg ergotamine, or the equimolar (summation) concentrations of the remaining ergopeptines or their epimers.
# The samples were analyzed using HPLC-FLD or HPLC-MS/MS, each by analytically determining the respective concentration of the sum of the respective epimers. […] During the continued reaction course, the conversion of metabolite 1 to ergine was detected.
# [3] = temperature range of the activity; format: biochemical; details: 0.1 μg/ml enzyme, 5 mg/kg ergotamine, Teorell-Stenhagen universal buffer pH 9.0
# [4] = temperature stability of the enzyme; format: biochemical
# Description: In order to determine the temperature stability, the enzyme was incubated for 1 h at varying temperatures ranging from 10° C. to 60° C. After this, the enzyme solutions were incubated at concentrations of 0.1 μg/ml in Teorell-Stenhagen universal buffer (pH 7.0) with 0.1 mg/ml BSA and 5 mg/kg ergotamine at 25° C.
# [5] = pH stability of the enzyme; format: biochemical; details: 1 h at 25° C. at pH 2 to pH 12; then assay at pH 7.0, 25° C.
# Description: In order to determine the pH stability, the enzyme was incubated for 1 h at 25° C. at varying pH values ranging from pH 2 to pH 12. After this, the enzyme solutions in concentrations of 0.1 μg/ml were incubated with 0.1 mg/ml BSA and 5 mg/kg ergotamine in Teorell-Stenhagen universal buffer (pH 7.0) at 25° C.
# [6] = degradation assay in the in-vitro rumen model; details: 1 μg/ml enzyme, 5 mg/kg ergotamine, rumen juice diluted 1:1, 39° C., HPLC/ESI-MS/MS
molecule,measurement,setting,value
"enzyme with the sequence ID No. 1: α/β-hydrolase with catalytic triad S94-D234-H270, coded by gene sequence ID No. 2, cleaving ergopeptines in the cyclol ring (protein, listed as Rhodococcus erythropolis) MPLVVLSDGTRIHVETSGNGVPALVPCVGSSVPFERTFGEELKTDIQYNFVEVRGTSRSDGEPSEVASLDRISDDLEEVRQLLGLDKVIALGQSRNGMMAAHYAQKYPNSVLHLVTIGTPASLSMIKNEEYWNAFADDERKRLRAENDAAMEREGLLDLDNLNTAEKIVRLFDLEGAVYFYDPTTLMNDWWDASLLSRTFEVVMASNMGWADFDLVQTLQNSDVPAFVTFGKYDFMVSPLPKPGNPVDGKAGLFEDIPGVRVEVFEKSGHFPYWEQEQEFARRYRDWVATLPESAVRAAEAMTPNGIRQ",time to almost complete degradation of ergotamine to ergine,[1],≤ 4 h
same,reaction courses of all other ergopeptines and their isomeric forms relative to ergotamine,[2],comparable
same,"temperature optimum of activity, based on the starting speed",[3],35 °C
same,temperature up to which the enzyme is stable,"[4]; 1 h preincubation at 10° C. to 60° C., then 0.1 μg/ml enzyme, pH 7.0, 0.1 mg/ml BSA, 5 mg/kg ergotamine, 25° C.",≤ 30 °C
same,activity after incubation at 40° C.,"[4]; 1 h preincubation at 40° C., then assay at pH 7.0, 25° C.",still displaying some activity
same,activity outside the pH 6 to pH 9 range after preincubation,[5],strongly decreasing activity
same,conversion of ergotamine in the rumen model,[6],completely converted into ergine and lysergic acid
